Experimental data reported in US20110300138A1 (published 2011).
Like-named read-outs stand apart in the source and are kept apart here.

Legend:
[1] = biological target: TSHR260-AP (human); test: TSHR260-AP bridge ELISA (full length TSHR on wells, TSHR260-AP in solution); IgG 0.005 µg/mL diluted in HBD serum
[2] = biological target: human TSH receptor (full length, wild type) expressed in CHO cells (human) (UniProt P16473); test: cell-based or functional assay
[3] = biological target: human TSHR (wild type, full length) expressed in CHO cells (human) (UniProt P16473); test: cell-based or functional assay
[4] = biological target: TSHR260-alkaline phosphatase (TSHR260-AP) (human) (UniProt P05187); test: TSHR260-AP bridge ELISA, full length TSHR on wells; 10 µg/mL, diluted in HBD
[5] = biological target: TSHR260-AP (human); test: TSHR260-AP bridge ELISA (full length TSHR on wells, TSHR260-AP in solution); IgG 100 µg/mL diluted in HBD serum
[6] = biological target: TSHR260-AP (human); test: TSHR260-AP bridge ELISA (full length TSHR on wells, TSHR260-AP in solution); IgG 0.01 µg/mL diluted in HBD serum
[7] = biological target: TSHR260-alkaline phosphatase (TSHR260-AP) (human) (UniProt P05187); test: TSHR260-AP bridge ELISA, full length TSHR on wells; 0.05 µg/mL, diluted in assay buffer
[8] = biological target: human TSH receptor (TSHR), wild type, expressed in CHO cells (human) (UniProt P16473); test: cell-based or functional assay
[9] = biological target: human TSHR (wild type, full length) expressed in CHO cells (human) (UniProt P16473); test: cell-based or functional assay; remark: listed apart in the source
[10] = biological target: human TSH receptor (full length, wild type) expressed on CHO cells (human) (UniProt P16473); test: cell-based or functional assay

B1: 5C9 IgG (antibody, from another filing, V domains shown)
VH: EVQLVESGGGLIQPGGSLRLSCAASGFTVSSNYMSWVRQAPGKGLEWVSVTYSGGSTSYADSVKGRFTISRDNSKNTLYLQMNSLRAEDTAVYYCARGGRYCSSISCYARSGCDYWGQGTLVTVSS
VL: AIQMTQSPSSLSASVGDRVTITCRASQSISNYLNWYQQKPGKAPKLLIYAASSLQSGVPSRFSGSGSGTDFTLTISSLQPEDFATYYCQQSYSSPSTTFGQGTKLEIK
Mean absorbance at 405 nm (absorbance at 405 nm) [1]: 0.02 | % Inhibition; T4 serum + 100 µg/mL 5C9 IgG [2]: 97.6% | % Inhibition; T5 serum + 100 µg/mL 5C9 IgG [2]: 98.3% | % Inhibition; T6 serum + 100 µg/mL 5C9 IgG [2]: 97.8% | Cyclic AMP concentration; 100 µg/mL 5C9 IgG alone [2]: 1.2 pmol/mL | Cyclic AMP concentration; HBD + 100 µg/mL 5C9 IgG [2]: 1.8 pmol/mL | Cyclic AMP concentration; T4 serum + 100 µg/mL 5C9 IgG [2]: 1.9 pmol/mL | Cyclic AMP concentration; T5 serum + 100 µg/mL 5C9 IgG [2]: 1.1 pmol/mL | Cyclic AMP concentration; T6 serum + 100 µg/mL 5C9 IgG [2]: 1.8 pmol/mL | % Inhibition of T13 serum stimulation; 100 µg/mL 5C9 IgG [3]: 97.5% | % Inhibition of T14 serum stimulation; 100 µg/mL 5C9 IgG [3]: 94.9% | % Inhibition of T15 serum stimulation; 100 µg/mL 5C9 IgG [3]: 96.9% | Cyclic AMP concentration; 100 µg/mL 5C9 IgG alone [3]: 0.9 pmol/mL | Cyclic AMP concentration; HBD + 100 µg/mL 5C9 IgG [3]: 1 pmol/mL | Cyclic AMP concentration; T13 serum + 100 µg/mL 5C9 IgG [3]: 1.2 pmol/mL | Cyclic AMP concentration; T14 serum + 100 µg/mL 5C9 IgG [3]: 1.4 pmol/mL | Cyclic AMP concentration; T15 serum + 100 µg/mL 5C9 IgG [3]: 1.6 pmol/mL | Mean absorbance at 405 nm (absorbance at 405 nm) [4]: 0.004 | Mean absorbance at 405 nm (absorbance at 405 nm) [5]: 0.027 | Mean absorbance at 405 nm (absorbance at 405 nm) [6]: 0.017 | Mean absorbance at 405 nm (absorbance at 405 nm) [7]: -0.008 | % Inhibition of constitutive activity; 0.001 µg/mL 5C9 IgG [8]: 0% | % Inhibition of constitutive activity; 0.01 µg/mL 5C9 IgG [8]: 1% | % Inhibition of constitutive activity; 0.1 µg/mL 5C9 IgG [8]: 13% | % Inhibition of constitutive activity; 0.3 µg/mL 5C9 IgG [8]: 50% | % Inhibition of constitutive activity; 1 µg/mL 5C9 IgG [8]: 61% | % Inhibition of constitutive activity; 3 µg/mL 5C9 IgG [8]: 63% | % Inhibition of constitutive activity; 10 µg/mL 5C9 IgG [8]: 56% | % Inhibition of constitutive activity; 100 µg/mL 5C9 IgG [8]: 52% | Cyclic AMP concentration (constitutive activity); 0.001 µg/mL 5C9 IgG [8]: 19.1 pmol/mL | Cyclic AMP concentration (constitutive activity); 0.01 µg/mL 5C9 IgG [8]: 18.6 pmol/mL | Cyclic AMP concentration (constitutive activity); 0.1 µg/mL 5C9 IgG [8]: 16.3 pmol/mL | Cyclic AMP concentration (constitutive activity); 0.3 µg/mL 5C9 IgG [8]: 9.3 pmol/mL | Cyclic AMP concentration (constitutive activity); 1 µg/mL 5C9 IgG [8]: 7.4 pmol/mL | Cyclic AMP concentration (constitutive activity); 3 µg/mL 5C9 IgG [8]: 6.9 pmol/mL | Cyclic AMP concentration (constitutive activity); 10 µg/mL 5C9 IgG [8]: 8.3 pmol/mL | Cyclic AMP concentration (constitutive activity); 100 µg/mL 5C9 IgG [8]: 9 pmol/mL | % Inhibition of T5 serum stimulation; 0.01 µg/mL 5C9 IgG [9]: 17.2% | % Inhibition of T5 serum stimulation; 0.1 µg/mL 5C9 IgG [9]: 91.2% | % Inhibition of T5 serum stimulation; 1 µg/mL 5C9 IgG [9]: 97.8% | % Inhibition of T5 serum stimulation; 10 µg/mL 5C9 IgG [9]: 98.9% | % Inhibition of T5 serum stimulation; 100 µg/mL 5C9 IgG [9]: 98.9% | Cyclic AMP concentration; 0.01 µg/mL 5C9 IgG + T5 [9]: 52.9 pmol/mL | Cyclic AMP concentration; 0.1 µg/mL 5C9 IgG + T5 [9]: 5.6 pmol/mL | Cyclic AMP concentration; 1 µg/mL 5C9 IgG + T5 [9]: 1.4 pmol/mL | Cyclic AMP concentration; 10 µg/mL 5C9 IgG + T5 [9]: 0.7 pmol/mL | Cyclic AMP concentration; 100 µg/mL 5C9 IgG + T5 [9]: 0.7 pmol/mL | Cyclic AMP concentration; 100 µg/mL 5C9 IgG alone [9]: 1.1 pmol/mL | % Inhibition of M22 IgG (3 ng/mL) stimulation; 0.001 µg/ml 5C9 IgG [10]: 0% | % Inhibition of M22 IgG (3 ng/mL) stimulation; 0.01 µg/ml 5C9 IgG [10]: 0% | % Inhibition of M22 IgG (3 ng/mL) stimulation; 0.1 µg/ml 5C9 IgG [10]: 91.2% | % Inhibition of M22 IgG (3 ng/mL) stimulation; 0.5 µg/ml 5C9 IgG [10]: 97% | % Inhibition of M22 IgG (3 ng/mL) stimulation; 1 µg/ml 5C9 IgG [10]: 97.6% | % Inhibition of M22 IgG (3 ng/mL) stimulation; 5 µg/ml 5C9 IgG [10]: 99.4% | % Inhibition of M22 IgG (3 ng/mL) stimulation; 10 µg/ml 5C9 IgG [10]: 99.1% | % Inhibition of M22 IgG (3 ng/mL) stimulation; 50 µg/ml 5C9 IgG [10]: 99.1% | % Inhibition of M22 IgG (3 ng/mL) stimulation; 100 µg/ml 5C9 IgG [10]: 98.8% | Cyclic AMP concentration; 3 ng/mL M22 IgG + 0.001 µg/ml 5C9 IgG [10]: 39.3 pmol/mL | Cyclic AMP concentration; 3 ng/mL M22 IgG + 0.01 µg/ml 5C9 IgG [10]: 42.3 pmol/mL | Cyclic AMP concentration; 3 ng/mL M22 IgG + 0.1 µg/ml 5C9 IgG [10]: 2.9 pmol/mL | Cyclic AMP concentration; 3 ng/mL M22 IgG + 0.5 µg/ml 5C9 IgG [10]: 1 pmol/mL | Cyclic AMP concentration; 3 ng/mL M22 IgG + 1 µg/ml 5C9 IgG [10]: 0.8 pmol/mL | Cyclic AMP concentration; 3 ng/mL M22 IgG + 5 µg/ml 5C9 IgG [10]: 0.2 pmol/mL | Cyclic AMP concentration; 3 ng/mL M22 IgG + 10 µg/ml 5C9 IgG [10]: 0.3 pmol/mL | Cyclic AMP concentration; 3 ng/mL M22 IgG + 50 µg/ml 5C9 IgG [10]: 0.3 pmol/mL | Cyclic AMP concentration; 3 ng/mL M22 IgG + 100 µg/ml 5C9 IgG [10]: 0.4 pmol/mL | Cyclic AMP concentration; 5C9 IgG 100 µg/mL alone [10]: 0.5 pmol/mL
